Experimental findings from patent US20160002599A1 are described below.

“And” between values parts separate entries of the source, which are not always exact repeats. Equal values may be shown once.

This test has as its target von Willebrand factor (vWF). The test can be described thus: cell-based or functional assay.

Sequence of von Willebrand factor (vWF) (P04275 764-2813): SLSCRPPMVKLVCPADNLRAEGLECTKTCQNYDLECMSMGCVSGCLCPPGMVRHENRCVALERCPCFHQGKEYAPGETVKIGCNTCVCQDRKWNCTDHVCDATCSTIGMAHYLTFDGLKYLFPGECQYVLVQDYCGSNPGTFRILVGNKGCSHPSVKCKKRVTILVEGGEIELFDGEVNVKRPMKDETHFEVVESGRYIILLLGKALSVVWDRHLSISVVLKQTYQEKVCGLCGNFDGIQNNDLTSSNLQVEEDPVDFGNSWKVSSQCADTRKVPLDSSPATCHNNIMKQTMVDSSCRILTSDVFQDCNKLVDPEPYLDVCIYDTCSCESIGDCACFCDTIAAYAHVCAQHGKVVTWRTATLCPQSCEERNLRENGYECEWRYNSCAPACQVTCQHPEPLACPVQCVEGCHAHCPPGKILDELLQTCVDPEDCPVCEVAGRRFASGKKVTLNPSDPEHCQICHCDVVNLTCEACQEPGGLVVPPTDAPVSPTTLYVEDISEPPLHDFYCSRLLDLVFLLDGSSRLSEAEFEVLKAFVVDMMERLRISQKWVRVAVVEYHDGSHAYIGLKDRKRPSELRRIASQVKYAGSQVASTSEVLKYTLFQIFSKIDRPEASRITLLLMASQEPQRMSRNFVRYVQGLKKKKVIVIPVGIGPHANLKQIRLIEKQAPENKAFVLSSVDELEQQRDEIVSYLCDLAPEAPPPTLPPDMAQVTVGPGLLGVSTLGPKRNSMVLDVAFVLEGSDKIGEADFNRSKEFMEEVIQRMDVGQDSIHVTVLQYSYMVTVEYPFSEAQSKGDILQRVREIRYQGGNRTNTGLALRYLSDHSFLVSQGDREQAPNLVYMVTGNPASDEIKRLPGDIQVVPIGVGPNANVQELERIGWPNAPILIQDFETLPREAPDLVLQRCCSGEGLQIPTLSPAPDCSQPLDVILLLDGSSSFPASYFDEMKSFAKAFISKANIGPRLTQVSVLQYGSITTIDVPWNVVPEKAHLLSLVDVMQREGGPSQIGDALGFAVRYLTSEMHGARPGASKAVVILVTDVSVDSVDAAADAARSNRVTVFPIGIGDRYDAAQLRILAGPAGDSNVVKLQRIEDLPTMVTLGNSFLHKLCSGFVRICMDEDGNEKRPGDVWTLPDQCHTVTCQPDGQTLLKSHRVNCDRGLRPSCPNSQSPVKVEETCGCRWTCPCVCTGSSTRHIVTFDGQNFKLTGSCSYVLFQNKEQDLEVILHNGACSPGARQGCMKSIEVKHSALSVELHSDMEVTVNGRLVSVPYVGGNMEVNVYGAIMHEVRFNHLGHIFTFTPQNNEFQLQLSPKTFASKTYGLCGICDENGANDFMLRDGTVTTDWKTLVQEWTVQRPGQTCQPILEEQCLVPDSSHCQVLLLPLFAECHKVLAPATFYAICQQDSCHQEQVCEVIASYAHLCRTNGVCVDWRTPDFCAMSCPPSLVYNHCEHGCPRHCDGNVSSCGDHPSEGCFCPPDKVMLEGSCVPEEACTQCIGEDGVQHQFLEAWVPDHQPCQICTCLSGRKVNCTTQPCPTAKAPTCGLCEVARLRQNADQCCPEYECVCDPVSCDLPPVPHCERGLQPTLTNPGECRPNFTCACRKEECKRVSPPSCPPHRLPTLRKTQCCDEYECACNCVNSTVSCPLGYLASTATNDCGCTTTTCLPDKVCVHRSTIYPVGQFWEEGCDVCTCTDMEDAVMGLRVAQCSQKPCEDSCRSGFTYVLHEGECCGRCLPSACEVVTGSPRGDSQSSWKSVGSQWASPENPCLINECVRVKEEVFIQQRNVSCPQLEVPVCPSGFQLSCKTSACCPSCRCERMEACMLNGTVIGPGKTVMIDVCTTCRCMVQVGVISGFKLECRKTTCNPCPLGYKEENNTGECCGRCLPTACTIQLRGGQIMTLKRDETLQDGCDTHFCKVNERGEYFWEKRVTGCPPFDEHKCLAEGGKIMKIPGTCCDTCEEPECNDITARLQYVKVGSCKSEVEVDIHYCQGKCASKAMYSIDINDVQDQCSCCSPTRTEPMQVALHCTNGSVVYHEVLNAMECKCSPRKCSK

“CD42b (from UniProt P07359 17-652) (receptor)”: the platelets bound to the channel (chamber coated with 10 ug/mL vWF, flow rate 1600 s-1) was 62.3% and 75.8%.
